Target: ELMO1-DOCK5 (1 to 1642) complex (human, UniProt Q9H7D0 1-1642; Q92556 1-727)
Test: SPR

ELMO1-DOCK5 (1 to 1642) complex, sequence (Q9H7D0 1-1642, chain 1 of 2): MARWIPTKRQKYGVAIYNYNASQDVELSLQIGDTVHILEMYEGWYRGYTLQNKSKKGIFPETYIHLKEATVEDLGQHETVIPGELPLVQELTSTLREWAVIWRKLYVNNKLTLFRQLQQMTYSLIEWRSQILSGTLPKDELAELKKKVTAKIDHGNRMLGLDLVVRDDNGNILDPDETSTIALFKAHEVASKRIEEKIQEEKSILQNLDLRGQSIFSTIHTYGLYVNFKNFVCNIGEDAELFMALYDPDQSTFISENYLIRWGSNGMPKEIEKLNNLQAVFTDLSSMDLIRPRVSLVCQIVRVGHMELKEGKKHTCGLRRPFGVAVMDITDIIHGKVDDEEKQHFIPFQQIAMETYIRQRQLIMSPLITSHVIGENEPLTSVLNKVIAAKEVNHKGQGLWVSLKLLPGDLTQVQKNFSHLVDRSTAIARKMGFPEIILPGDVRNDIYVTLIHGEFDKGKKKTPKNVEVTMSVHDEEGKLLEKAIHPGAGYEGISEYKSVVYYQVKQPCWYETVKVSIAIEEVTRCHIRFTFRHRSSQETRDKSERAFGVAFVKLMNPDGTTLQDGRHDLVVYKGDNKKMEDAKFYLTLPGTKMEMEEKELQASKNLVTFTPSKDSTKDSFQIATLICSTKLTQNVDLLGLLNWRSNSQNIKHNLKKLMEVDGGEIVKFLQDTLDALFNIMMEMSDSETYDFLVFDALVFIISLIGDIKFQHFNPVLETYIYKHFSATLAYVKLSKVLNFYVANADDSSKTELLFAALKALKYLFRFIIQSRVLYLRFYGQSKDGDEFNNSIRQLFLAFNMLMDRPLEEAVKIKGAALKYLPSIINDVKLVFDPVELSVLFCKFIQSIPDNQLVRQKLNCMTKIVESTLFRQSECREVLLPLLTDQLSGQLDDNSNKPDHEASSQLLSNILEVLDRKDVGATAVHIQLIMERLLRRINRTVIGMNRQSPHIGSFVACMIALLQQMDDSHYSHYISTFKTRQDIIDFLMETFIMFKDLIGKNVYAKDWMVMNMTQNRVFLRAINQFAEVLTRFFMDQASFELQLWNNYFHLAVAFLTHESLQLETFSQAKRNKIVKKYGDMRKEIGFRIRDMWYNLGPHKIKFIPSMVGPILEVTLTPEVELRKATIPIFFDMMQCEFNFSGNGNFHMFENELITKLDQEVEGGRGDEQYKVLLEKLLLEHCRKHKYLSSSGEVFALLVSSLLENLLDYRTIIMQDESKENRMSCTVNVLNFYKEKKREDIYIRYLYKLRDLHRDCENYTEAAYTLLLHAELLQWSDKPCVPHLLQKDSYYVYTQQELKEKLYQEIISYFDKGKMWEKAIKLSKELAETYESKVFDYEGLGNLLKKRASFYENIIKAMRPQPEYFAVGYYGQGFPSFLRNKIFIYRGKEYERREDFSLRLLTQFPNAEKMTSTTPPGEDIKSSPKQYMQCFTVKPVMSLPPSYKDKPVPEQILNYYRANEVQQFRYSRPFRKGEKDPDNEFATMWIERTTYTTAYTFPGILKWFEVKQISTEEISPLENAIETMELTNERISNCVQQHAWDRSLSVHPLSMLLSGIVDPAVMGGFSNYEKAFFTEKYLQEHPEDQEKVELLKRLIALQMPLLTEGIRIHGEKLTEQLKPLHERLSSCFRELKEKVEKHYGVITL
ELMO1-DOCK5 (1 to 1642) complex, sequence (Q92556 whole entry, chain 2 of 2): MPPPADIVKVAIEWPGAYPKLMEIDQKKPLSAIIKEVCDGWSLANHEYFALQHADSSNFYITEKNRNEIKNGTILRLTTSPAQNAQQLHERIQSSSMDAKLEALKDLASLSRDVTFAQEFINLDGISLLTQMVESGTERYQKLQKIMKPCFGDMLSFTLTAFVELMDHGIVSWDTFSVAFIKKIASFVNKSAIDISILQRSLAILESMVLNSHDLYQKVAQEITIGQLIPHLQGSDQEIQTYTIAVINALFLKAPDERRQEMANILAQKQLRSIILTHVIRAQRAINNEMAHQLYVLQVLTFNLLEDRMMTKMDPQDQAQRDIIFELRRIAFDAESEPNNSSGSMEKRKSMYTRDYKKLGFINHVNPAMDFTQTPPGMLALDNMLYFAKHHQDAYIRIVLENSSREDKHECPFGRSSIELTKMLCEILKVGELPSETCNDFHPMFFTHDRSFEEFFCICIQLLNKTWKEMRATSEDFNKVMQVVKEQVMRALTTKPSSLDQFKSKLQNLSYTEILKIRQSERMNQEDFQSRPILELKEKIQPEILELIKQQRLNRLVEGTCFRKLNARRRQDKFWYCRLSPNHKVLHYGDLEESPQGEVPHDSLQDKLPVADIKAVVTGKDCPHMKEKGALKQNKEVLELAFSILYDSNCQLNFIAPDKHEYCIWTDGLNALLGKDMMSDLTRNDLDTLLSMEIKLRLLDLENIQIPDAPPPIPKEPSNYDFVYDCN

B1: human RhoG (residues 1 to 184) Q61L mutant, GTP-bound (natural protein)
chain: not shown
Kd: 10.3 µM
